From paper PMC10599278

Conditions: ubiquitination at K213

For IGF2BP3: K213R, the other was “decreases”.
